# Measurements taken from patent US12358960B2, “Selective targeting of ubiquitin- and ubiquitin-like E1-activating enzymes by structurally-stabilized peptides” (Dana-Farber Cancer Institute, Inc., priority 2019, dated 2025).
# “Also recorded” adds a separate entry of the source. Bridge positions count the residues as written; N and C are the ends. Square brackets hold non-standard residues; d marks the D form. Ends that are not written are not given here. * marks the point of attachment. R8 = C=CCCCCCC[C@@](C)(N)C(=O)O; S5 = C=CCCC[C@](C)(N)C(=O)O; Nle = CCCC[C@H](N)C(=O)O; Dab = NCC[C@H](N)C(=O)O; Acryloyl = C=CC(=O)*
# Molecular target: T1, Human E1 activating enzyme UBA1 (Homo sapiens, UniProt P22314)
# T1 sequence (P22314 1-1058): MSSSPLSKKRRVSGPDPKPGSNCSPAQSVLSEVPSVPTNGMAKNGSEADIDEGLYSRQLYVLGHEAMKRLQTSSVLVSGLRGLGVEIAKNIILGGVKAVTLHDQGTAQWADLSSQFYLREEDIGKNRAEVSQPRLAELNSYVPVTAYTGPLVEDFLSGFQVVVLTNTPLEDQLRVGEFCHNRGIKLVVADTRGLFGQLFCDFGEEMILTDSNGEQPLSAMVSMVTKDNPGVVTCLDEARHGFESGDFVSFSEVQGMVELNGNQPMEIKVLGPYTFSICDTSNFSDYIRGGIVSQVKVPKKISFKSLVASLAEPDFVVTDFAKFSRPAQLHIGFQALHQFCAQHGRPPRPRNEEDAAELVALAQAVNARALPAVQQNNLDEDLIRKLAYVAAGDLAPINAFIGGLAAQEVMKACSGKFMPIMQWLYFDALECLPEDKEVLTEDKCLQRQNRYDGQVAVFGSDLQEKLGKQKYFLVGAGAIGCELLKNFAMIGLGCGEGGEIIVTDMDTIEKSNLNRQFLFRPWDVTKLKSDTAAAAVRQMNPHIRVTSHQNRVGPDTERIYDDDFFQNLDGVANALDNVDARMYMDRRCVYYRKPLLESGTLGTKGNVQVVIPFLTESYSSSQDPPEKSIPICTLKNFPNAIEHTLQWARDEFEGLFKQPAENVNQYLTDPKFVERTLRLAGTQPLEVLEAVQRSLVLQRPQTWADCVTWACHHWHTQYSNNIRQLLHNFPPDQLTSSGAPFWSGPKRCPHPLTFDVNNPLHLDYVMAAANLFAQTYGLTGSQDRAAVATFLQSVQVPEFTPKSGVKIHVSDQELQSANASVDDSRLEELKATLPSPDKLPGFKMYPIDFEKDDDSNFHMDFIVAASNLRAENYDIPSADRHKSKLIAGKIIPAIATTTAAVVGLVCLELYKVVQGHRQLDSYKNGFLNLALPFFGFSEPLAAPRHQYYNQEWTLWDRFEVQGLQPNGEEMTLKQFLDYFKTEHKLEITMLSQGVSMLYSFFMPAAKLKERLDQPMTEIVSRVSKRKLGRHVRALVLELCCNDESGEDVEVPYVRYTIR
# Experiment: In vitro enzyme inhibition assay: E1-mediated ubiquitin thioester transfer to E2 (band shift, silver stain)
# Assay type: biochemical
# Settings: for inhibition of E1-mediated thioester transfer to E2 by mutant / additional stapled peptides: SAH-UBE2A-11 variants and controls, Examples 4, 7, 13; for inhibition of E1-mediated ubiquitin transfer to E2 (conversion of E2 to E2~ubiquitin): 100 μM peptide, staple scan; for inhibition of E1-mediated thioester transfer to E2 by warhead-bearing stapled peptides: Example 8
# Experimental: In vitro Enzyme Inhibition Assays: To assess an E2 hA peptide's inhibition of an E1 enzyme, an in vitro enzyme inhibition assay can be used, for example. The in vitro enzyme inhibition assay measures an E2 hA peptide's ability to inhibit conjugation of ubiquitin to E2 by E1. Briefly, recombinant E1 (e.g., UBA1), recombinant E2 (e.g., UBE2A), ubiquitin, and Mg-ATP are combined in the presence of an E2 hA peptide or vehicle control (e.g., 1% DMSO) for a period of time (e.g., 30 minutes) at room temperature in a buffer containing, e.g., 50 mM NaCl, 50 mM HEPES pH 7.5. Control reaction includes no E1. Reactions are quenched by addition of SDS-containing loading dye and samples are resolved on a gel (e.g., a 4-12% Bis-Tris protein gel) under nonreducing conditions. Proteins on the gel are visualized via, e.g., silver stain. Conjugation of ubiquitin to E2 by E1 is monitored by conversion of free E2 (˜17 kDa) to E2˜ubiquitin conjugate (˜26 kDa).
# Control reaction included no E1 enzyme. Reactions were quenched by addition of SDS-containing loading dye and samples were resolved on a 4-12% Bis-Tris protein gel under nonreducing conditions. Proteins were visualized via silver stain. Conjugation of ubiquitin to E2 by E1 was monitored by conversion of free E2 (17 kDa) to E2˜ubiquitin conjugate (26 kDa).
# The ability of the peptides to inhibit E1-mediated thioester transfer to E2 was evaluated. Human E1 activating enzyme UBA1 (10 nM), UbcH5b E2 enzyme (150 nM), ubiquitin (1 μM), and Mg-ATP (20 μM) were combined in the presence of stapled peptide at a range of concentrations or vehicle control (1% DMSO) for 45 minutes at room temperature in buffer containing 50 mM NaCl, 50 mM HEPES, 1 mM TCEP pH 7.5. Reactions were quenched by addition of SDS-containing loading dye and samples were resolved on a 4-12% Bis-Tris protein gel under nonreducing conditions. Proteins were visualized via silver stain. Conjugation of ubiquitin to E2 by E1 was monitored by conversion of free E2 (17 kDa) to E2˜ubiquitin conjugate (26 kDa). Inhibition percentage was calculated from densitometry of silver stain images.
# Streptavidin-biotin pull-down assays: For recombinant protein pull-downs, 10 pmol recombinant human UBA1 was incubated with 5 nmol C-terminally biotinylated SAH-UBE2A or DMSO vehicle control in a total volume of 1 mL binding buffer (50 mM NaCl, 20 mM HEPES, pH 7.4, 5 mM DTT) for 1.5 hours at 4° C. 30 μL of pre-equilibrated streptavidin agarose beads were then added and incubated for an additional 1.5 hours at 4° C. The beads were pelleted by centrifugation and washed three times with NP-40 buffer (20 mM HEPES, pH 7.4, 50 mM NaCl, 5 mM DTT, 0.5% [v/v] NP-40) before eluting the protein sample from the beads by heating at 70° C. for 10 min in 3×SDS loading buffer. Samples were subjected to electrophoresis and silver staining (Pierce 24612). For pull-down from cellular lysates, 0.75 mg HeLa cell lysate was incubated with 5 nmol C-terminally biotinylated SAH-UBE2A or DMSO vehicle control in a total volume of 1 mL binding buffer (50 mM NaCl, 20 mM HEPES, pH 7.4, 5 mM DTT) containing protease-phosphatase inhibitor cocktail for 2 hours at 4° C. 30 μL of pre-equilibrated streptavidin agarose beads (ThermoFisher 20357) were then added and incubated for an additional 1.5 hours at 4° C. The beads were pelleted by centrifugation and washed three times with NP-40 buffer (20 mM HEPES, pH 7.4, 50 mM NaCl, 5 mM DTT, 0.5% [v/v] NP-40) before eluting the protein sample from the beads by heating at 70° C. for 10 min in 3×SDS loading buffer. Proteins were separated by SDS-PAGE gel electrophoresis and detected by western blot against UBE1 (Abcam ab34711). In vitro Enzyme Inhibition Assays: Recombinant human E1 activating enzyme UBA1 (10 nM), E2 enzyme (150 nM), ubiquitin (1 μM), and Mg-ATP (20 μM) are combined in the presence of peptide or vehicle control (1% DMSO) for 45 minutes at room temperature in buffer containing 50 mM NaCl, 50 mM HEPES pH 7.5. Control reaction includes no E1 enzyme. […]
Substance,"inhibition of E1-mediated ubiquitin transfer to E2 (conversion of E2 to E2~ubiquitin) (UbcH5b E2 enzyme, 45 minutes)",inhibition of E1-mediated thioester transfer to E2 by warhead-bearing stapled peptides,also measured
"BSTPX1RERLBRX2FKRLQ (Ac-[Nle]STP[S5]RERL[Nle]R[R8]FKRLQ-NH2; staple 5-12) [SAH-UBE2A-11-R7E, point mutant negative control stapled peptide]",–,–,"inhibition of E1-mediated thioester transfer to E2 by mutant / additional stapled peptides: reduced inhibitory activity as compared to SAH-UBE2A; inhibition of E1-mediated thioester transfer to a variety of human E2 enzymes (panel of human E2 enzymes (UBE2A, UBE2B, UBE2C, UBE2D1-4 etc.)): diminished inhibitory capacity; also recorded: mitigated by a single point mutation (R7E)"
BPSSX2SRQX2LRKQLKEIQ [SEQ ID NO:41],unable to inhibit E1-mediated ubiquitin transfer to E2,–,–
BPSSASX1QLLRKQX2KEIQ [SEQ ID NO:51],unable to inhibit E1-mediated ubiquitin transfer to E2,–,–
"BPSSAX1RQLLRKX2LJEIQ ([Nle]PSSA[R8]RQLLRK[S5]L[Dab](Acryloyl)EIQ; staple 6-13; not fully specified (N-terminus, C-terminus); printed as BPSSAX1RQLLRKX2LJEIQ) [SEQ ID NO:844, warhead-bearing stapled peptide, J acrylamide-bearing Dab at A11, staple A2 and A9]",–,inhibited E1-mediated thioester transfer to E2,–
BPSSASRQX1LRKQLKX2IQ [SEQ ID NO:53],inhibited conversion of E2 to E2˜ubiquitin by E1,–,–
BPSSASRX1LLRKQLX2EIQ [SEQ ID NO:52],inhibited conversion of E2 to E2˜ubiquitin by E1,–,–
"BPSSX1SRQLLRX2QLJEIQ ([Nle]PSS[R8]SRQLLR[S5]QL[Dab](Acryloyl)EIQ; staple 5-12; not fully specified (N-terminus, C-terminus); printed as BPSSX1SRQLLRX2QLJEIQ) [SEQ ID NO:841, warhead-bearing stapled peptide, J acrylamide-bearing Dab at A11, staple A1 and A8]",–,inhibited E1-mediated thioester transfer to E2,–
BPSSASRQLLRX2QLKX2IQ [SEQ ID NO:46],inhibited conversion of E2 to E2˜ubiquitin by E1,–,–
BSTPX1RARLBRX2FKRLQ (Ac-[Nle]STP[R8]RARL[Nle]R[S5]FKRLQ-NH2; staple 5-12) [SEQ ID NO:817],–,–,inhibition of E1-mediated thioester transfer to E2 by mutant / additional stapled peptides: impair the inhibitory activity of SAH-UBE2A-11
"BX1LKRIHJX2LNDLARD ([Nle][R8]LKRIH[Dab](Acryloyl)[S5]LNDLARD; staple 2-9; not fully specified (N-terminus, C-terminus); printed as BX1LKRIHJX2LNDLARD) [SEQ ID NO:691, warhead-bearing stapled peptide, J acrylamide-bearing Dab at A8, staple A2 and A9]",–,did not inhibit E1-mediated thioester transfer to E2,–
"BPSSAX1RQLLRJX2LKEIQ ([Nle]PSSA[R8]RQLLR[Dab](Acryloyl)[S5]LKEIQ; staple 6-13; not fully specified (N-terminus, C-terminus); printed as BPSSAX1RQLLRJX2LKEIQ) [SEQ ID NO:842, warhead-bearing stapled peptide, J acrylamide-bearing Dab at A8, staple A2 and A9]",–,inhibited E1-mediated thioester transfer to E2,–
BX1LKRIHKX2LNDLARD [SAH-UBE2D2-11],–,–,"inhibition of E1-mediated thioester transfer to E2, dose response (range of peptide concentrations, UbcH5b E2 enzyme, 45 minutes): inhibited E1-mediated thioester transfer to E2 in a dose-dependent manner; also recorded: dose-dependently inhibit E1-mediated thioester transfer to E2"
BPSSX1SRQLLRX2QLKEIQ [SEQ ID NO:49],inhibited conversion of E2 to E2˜ubiquitin by E1,–,–
BPSSASRQLX2RKQX2KEIQ [SEQ ID NO:45],unable to inhibit E1-mediated ubiquitin transfer to E2,–,–
BSTPX1RRRLARX2FKRLQ (Ac-[Nle]STP[R8]RRRLAR[S5]FKRLQ-NH2; staple 5-12) [SEQ ID NO:820],–,–,inhibition of E1-mediated thioester transfer to E2 by mutant / additional stapled peptides: impair the inhibitory activity of SAH-UBE2A-11
BPSSASRQLLRKX2LKEX2Q [SEQ ID NO:47],inhibited conversion of E2 to E2˜ubiquitin by E1,–,–
BPSSASRX2LLRX2QLKEIQ [SEQ ID NO:43],unable to inhibit E1-mediated ubiquitin transfer to E2,–,–
"BSTPX1RRRLJRX2FKRLQ ([Nle]STP[R8]RRRL[Dab](Acryloyl)R[S5]FKRLQ; staple 5-12; not fully specified (N-terminus, C-terminus); printed as BSTPX1RRRLJRX2FKRLQ) [SEQ ID NO:680, warhead-bearing stapled peptide, J acrylamide-bearing Dab at A7, staple A2 and A9]",–,inhibited E1-mediated thioester transfer to E2,–
"BX1LKRIHKX2LJDLARD ([Nle][R8]LKRIHK[S5]L[Dab](Acryloyl)DLARD; staple 2-9; not fully specified (N-terminus, C-terminus); printed as BX1LKRIHKX2LJDLARD) [SEQ ID NO:727, warhead-bearing stapled peptide, J acrylamide-bearing Dab at A11, staple A2 and A9]",–,inhibited E1-mediated thioester transfer to E2,–
